Measurements published in PMC9255381.

What was measured:
Test in all cases: BLI
[1] = target: vWF-A1 of Didelphis virginiana (Didelphis virginiana)
[2] = target: vWF-A1 of D. marsupialis (D. marsupialis (Didelphis))
[3] = target: vWF-A1 of D. aurita (made by site-directed mutagenesis of the D. marsupialis construct) (D. aurita (Didelphis))
[4] = target: vWF-A1 of D. albiventus (D. albiventus (Didelphis))
[5] = target: vWF-A1 of Monodelphis emiliae (Monodelphis emiliae)
[6] = target: vWF-A1 of Monodelphis domestica (Monodelphis domestica)
[7] = target: vWF-A1 of Lutreolina crassicaudata (Lutreolina crassicaudata)
[8] = target: vWF-A1 of C. minimus (C. minimus (Chironectes))
[9] = target: vWF-A1 of P. quica (P. quica (Philander))

Q: Which fold reduction of binding affinity against human vWF [1] does the source give for “botrocetin (isoform A) (natural protein)” here?
A: > 8 fold

Q: And the fold reduction of binding affinity against human vWF [2]?
A: > 8 fold

Q: With “botrocetin (isoform B) (natural protein)” as the substance, how does the fold reduction of binding affinity against human vWF [1] read?
A: > 8 fold

Q: And the fold reduction of binding affinity against human vWF [2]?
A: > 8 fold

Q: What about the fold reduction of binding affinity against human vWF [3] of the same substance?
A: 8 fold

Q: What about the fold reduction of binding affinity against human vWF [4] of the same substance?
A: > 8 fold

Q: And the fold reduction of binding affinity against human vWF [5]?
A: > 8 fold

Q: What about the fold reduction of binding affinity against human vWF [6] of the same substance?
A: > 8 fold

Q: What about the fold reduction of binding affinity against human vWF [7] of the same substance?
A: > 8 fold

Q: And the fold reduction of binding affinity against human vWF [8]?
A: > 8 fold

Q: And the fold reduction of binding affinity against human vWF [9]?
A: > 8 fold
